According to patent publication US20110294738A1, “PTHR1 RECEPTOR COMPOUNDS” (priority 2008, published 2011):
* marks the point of attachment. Palmitoyl = CCCCCCCCCCCCCCCC(=O)*

Biological target: PTHR1 receptor
Sequence (P25961 whole entry): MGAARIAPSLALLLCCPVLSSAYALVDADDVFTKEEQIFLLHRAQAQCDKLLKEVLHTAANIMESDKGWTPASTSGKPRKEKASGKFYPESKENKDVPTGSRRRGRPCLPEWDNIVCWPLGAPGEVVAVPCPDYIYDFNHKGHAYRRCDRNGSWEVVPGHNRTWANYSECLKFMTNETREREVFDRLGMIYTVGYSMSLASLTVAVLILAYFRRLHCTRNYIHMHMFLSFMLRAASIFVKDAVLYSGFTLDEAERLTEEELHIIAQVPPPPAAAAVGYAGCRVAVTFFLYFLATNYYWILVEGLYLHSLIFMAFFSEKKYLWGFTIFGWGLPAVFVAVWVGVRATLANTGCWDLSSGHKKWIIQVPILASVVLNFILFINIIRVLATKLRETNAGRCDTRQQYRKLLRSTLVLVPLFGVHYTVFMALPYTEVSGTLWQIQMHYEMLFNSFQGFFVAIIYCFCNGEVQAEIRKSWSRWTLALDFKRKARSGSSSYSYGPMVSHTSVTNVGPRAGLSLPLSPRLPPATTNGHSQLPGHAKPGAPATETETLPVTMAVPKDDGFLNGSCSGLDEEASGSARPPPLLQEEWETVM

| Fold Shift of EC50 [fold] | Inhibition of Maximal Response [%] | Binder |
| --- | --- | --- |
| 1 | 10.8 | Palmitoyl-YFRRLHSTRNYIH-NH2 (SMILES CCCCCCCCCCCCCCCC(=O)N[C@@H](Cc1ccc(O)cc1)C(=O)N[C@@H](Cc1ccccc1)C(=O)N[C@@H](CCCNC(=N)N)C(=O)N[C@@H](CCCNC(=N)N)C(=O)N[C@@H](CC(C)C)C(=O)N[C@@H](Cc1c[nH]cn1)C(=O)N[C@@H](CO)C(=O)N[C@H](C(=O)N[C@@H](CCCNC(=N)N)C(=O)N[C@@H](CC(N)=O)C(=O)N[C@@H](Cc1ccc(O)cc1)C(=O)N[C@H](C(=O)N[C@@H](Cc1c[nH]cn1)C(N)=O)[C@@H](C)CC)[C@@H](C)O) [Compound 6] |
| 1.1 | 34 | Palmitoyl-NGEVQAEIKKSWSRWTLALD-NH2 (SMILES CCCCCCCCCCCCCCCC(=O)N[C@@H](CC(N)=O)C(=O)NCC(=O)N[C@@H](CCC(=O)O)C(=O)N[C@H](C(=O)N[C@@H](CCC(N)=O)C(=O)N[C@@H](C)C(=O)N[C@@H](CCC(=O)O)C(=O)N[C@H](C(=O)N[C@@H](CCCCN)C(=O)N[C@@H](CCCCN)C(=O)N[C@@H](CO)C(=O)N[C@@H](Cc1c[nH]c2ccccc12)C(=O)N[C@@H](CO)C(=O)N[C@@H](CCCNC(=N)N)C(=O)N[C@@H](Cc1c[nH]c2ccccc12)C(=O)N[C@H](C(=O)N[C@@H](CC(C)C)C(=O)N[C@@H](C)C(=O)N[C@@H](CC(C)C)C(=O)N[C@@H](CC(=O)O)C(N)=O)[C@@H](C)O)[C@@H](C)CC)C(C)C) [Compound 105] |
| 6.9 | 9.9 | Palmitoyl-TNAGRADTRQQYRKLL-NH2 (SMILES CCCCCCCCCCCCCCCC(=O)N[C@H](C(=O)N[C@@H](CC(N)=O)C(=O)N[C@@H](C)C(=O)NCC(=O)N[C@@H](CCCNC(=N)N)C(=O)N[C@@H](C)C(=O)N[C@@H](CC(=O)O)C(=O)N[C@H](C(=O)N[C@@H](CCCNC(=N)N)C(=O)N[C@@H](CCC(N)=O)C(=O)N[C@@H](CCC(N)=O)C(=O)N[C@@H](Cc1ccc(O)cc1)C(=O)N[C@@H](CCCNC(=N)N)C(=O)N[C@@H](CCCCN)C(=O)N[C@@H](CC(C)C)C(=O)N[C@@H](CC(C)C)C(N)=O)[C@@H](C)O)[C@@H](C)O) [Compound 77] |
| 16.9 | 2.4 | Palmitoyl-TNAGASDTRQQYRKLL-NH2 (SMILES CCCCCCCCCCCCCCCC(=O)N[C@H](C(=O)N[C@@H](CC(N)=O)C(=O)N[C@@H](C)C(=O)NCC(=O)N[C@@H](C)C(=O)N[C@@H](CO)C(=O)N[C@@H](CC(=O)O)C(=O)N[C@H](C(=O)N[C@@H](CCCNC(=N)N)C(=O)N[C@@H](CCC(N)=O)C(=O)N[C@@H](CCC(N)=O)C(=O)N[C@@H](Cc1ccc(O)cc1)C(=O)N[C@@H](CCCNC(=N)N)C(=O)N[C@@H](CCCCN)C(=O)N[C@@H](CC(C)C)C(=O)N[C@@H](CC(C)C)C(N)=O)[C@@H](C)O)[C@@H](C)O) [Compound 76] |
| 1.2 | 26.8 | Palmitoyl-SRWTLALDFKRKAR-NH2 (SMILES CCCCCCCCCCCCCCCC(=O)N[C@@H](CO)C(=O)N[C@@H](CCCNC(=N)N)C(=O)N[C@@H](Cc1c[nH]c2ccccc12)C(=O)N[C@H](C(=O)N[C@@H](CC(C)C)C(=O)N[C@@H](C)C(=O)N[C@@H](CC(C)C)C(=O)N[C@@H](CC(=O)O)C(=O)N[C@@H](Cc1ccccc1)C(=O)N[C@@H](CCCCN)C(=O)N[C@@H](CCCNC(=N)N)C(=O)N[C@@H](CCCCN)C(=O)N[C@@H](C)C(=O)N[C@@H](CCCNC(=N)N)C(N)=O)[C@@H](C)O) [Compound 104] |
| 1.2 | -7.3 | Palmitoyl-WTLALDFKRKAR-NH2 (SMILES CCCCCCCCCCCCCCCC(=O)N[C@@H](Cc1c[nH]c2ccccc12)C(=O)N[C@H](C(=O)N[C@@H](CC(C)C)C(=O)N[C@@H](C)C(=O)N[C@@H](CC(C)C)C(=O)N[C@@H](CC(=O)O)C(=O)N[C@@H](Cc1ccccc1)C(=O)N[C@@H](CCCCN)C(=O)N[C@@H](CCCNC(=N)N)C(=O)N[C@@H](CCCCN)C(=O)N[C@@H](C)C(=O)N[C@@H](CCCNC(=N)N)C(N)=O)[C@@H](C)O) [Compound 103] |

Further lines, the binder ahead of its results:

| Binder | Fold Shift of EC50 [fold] | Inhibition of Maximal Response [%] |
| --- | --- | --- |
| Palmitoyl-TNAGRSDTAQQYRKLL-NH2 (SMILES CCCCCCCCCCCCCCCC(=O)N[C@H](C(=O)N[C@@H](CC(N)=O)C(=O)N[C@@H](C)C(=O)NCC(=O)N[C@@H](CCCNC(=N)N)C(=O)N[C@@H](CO)C(=O)N[C@@H](CC(=O)O)C(=O)N[C@H](C(=O)N[C@@H](C)C(=O)N[C@@H](CCC(N)=O)C(=O)N[C@@H](CCC(N)=O)C(=O)N[C@@H](Cc1ccc(O)cc1)C(=O)N[C@@H](CCCNC(=N)N)C(=O)N[C@@H](CCCCN)C(=O)N[C@@H](CC(C)C)C(=O)N[C@@H](CC(C)C)C(N)=O)[C@@H](C)O)[C@@H](C)O) [Compound 78] | 12.7 | -29.2 |
| Palmitoyl-NGEVQAEIKKSW-NH2 (SMILES CCCCCCCCCCCCCCCC(=O)N[C@@H](CC(N)=O)C(=O)NCC(=O)N[C@@H](CCC(=O)O)C(=O)N[C@H](C(=O)N[C@@H](CCC(N)=O)C(=O)N[C@@H](C)C(=O)N[C@@H](CCC(=O)O)C(=O)N[C@H](C(=O)N[C@@H](CCCCN)C(=O)N[C@@H](CCCCN)C(=O)N[C@@H](CO)C(=O)N[C@@H](Cc1c[nH]c2ccccc12)C(N)=O)[C@@H](C)CC)C(C)C) [Compound 99] | 1 | 17.5 |
| Palmitoyl-NGEVQAEIKKSWSRWT-NH2 (SMILES CCCCCCCCCCCCCCCC(=O)N[C@@H](CC(N)=O)C(=O)NCC(=O)N[C@@H](CCC(=O)O)C(=O)N[C@H](C(=O)N[C@@H](CCC(N)=O)C(=O)N[C@@H](C)C(=O)N[C@@H](CCC(=O)O)C(=O)N[C@H](C(=O)N[C@@H](CCCCN)C(=O)N[C@@H](CCCCN)C(=O)N[C@@H](CO)C(=O)N[C@@H](Cc1c[nH]c2ccccc12)C(=O)N[C@@H](CO)C(=O)N[C@@H](CCCNC(=N)N)C(=O)N[C@@H](Cc1c[nH]c2ccccc12)C(=O)N[C@H](C(N)=O)[C@@H](C)O)[C@@H](C)CC)C(C)C) [Compound 101] | 1.2 | 25.3 |
| Palmitoyl-NGEVQAEIKKSWSR-NH2 (SMILES CCCCCCCCCCCCCCCC(=O)N[C@@H](CC(N)=O)C(=O)NCC(=O)N[C@@H](CCC(=O)O)C(=O)N[C@H](C(=O)N[C@@H](CCC(N)=O)C(=O)N[C@@H](C)C(=O)N[C@@H](CCC(=O)O)C(=O)N[C@H](C(=O)N[C@@H](CCCCN)C(=O)N[C@@H](CCCCN)C(=O)N[C@@H](CO)C(=O)N[C@@H](Cc1c[nH]c2ccccc12)C(=O)N[C@@H](CO)C(=O)N[C@@H](CCCNC(=N)N)C(N)=O)[C@@H](C)CC)C(C)C) [Compound 100] | 1.8 | 26.8 |
